These results are taken from US20110200608A1.

The target in this test is high molecular weight-melanoma associated antigen (HMW-MAA), human (human) (UniProt Q6UVK1). As to the kind of experiment: competition cell ELISA on HMW-MAA+ SK-MEL-28 cells, 1 h at 4 °C, SA-HRP; competitor: biotinylated scFv C21 (0.25 µg/well); axis gives µg of mAb, not a concentration.
high molecular weight-melanoma associated antigen (HMW-MAA), human (human), sequence (Q6UVK1 30-2322): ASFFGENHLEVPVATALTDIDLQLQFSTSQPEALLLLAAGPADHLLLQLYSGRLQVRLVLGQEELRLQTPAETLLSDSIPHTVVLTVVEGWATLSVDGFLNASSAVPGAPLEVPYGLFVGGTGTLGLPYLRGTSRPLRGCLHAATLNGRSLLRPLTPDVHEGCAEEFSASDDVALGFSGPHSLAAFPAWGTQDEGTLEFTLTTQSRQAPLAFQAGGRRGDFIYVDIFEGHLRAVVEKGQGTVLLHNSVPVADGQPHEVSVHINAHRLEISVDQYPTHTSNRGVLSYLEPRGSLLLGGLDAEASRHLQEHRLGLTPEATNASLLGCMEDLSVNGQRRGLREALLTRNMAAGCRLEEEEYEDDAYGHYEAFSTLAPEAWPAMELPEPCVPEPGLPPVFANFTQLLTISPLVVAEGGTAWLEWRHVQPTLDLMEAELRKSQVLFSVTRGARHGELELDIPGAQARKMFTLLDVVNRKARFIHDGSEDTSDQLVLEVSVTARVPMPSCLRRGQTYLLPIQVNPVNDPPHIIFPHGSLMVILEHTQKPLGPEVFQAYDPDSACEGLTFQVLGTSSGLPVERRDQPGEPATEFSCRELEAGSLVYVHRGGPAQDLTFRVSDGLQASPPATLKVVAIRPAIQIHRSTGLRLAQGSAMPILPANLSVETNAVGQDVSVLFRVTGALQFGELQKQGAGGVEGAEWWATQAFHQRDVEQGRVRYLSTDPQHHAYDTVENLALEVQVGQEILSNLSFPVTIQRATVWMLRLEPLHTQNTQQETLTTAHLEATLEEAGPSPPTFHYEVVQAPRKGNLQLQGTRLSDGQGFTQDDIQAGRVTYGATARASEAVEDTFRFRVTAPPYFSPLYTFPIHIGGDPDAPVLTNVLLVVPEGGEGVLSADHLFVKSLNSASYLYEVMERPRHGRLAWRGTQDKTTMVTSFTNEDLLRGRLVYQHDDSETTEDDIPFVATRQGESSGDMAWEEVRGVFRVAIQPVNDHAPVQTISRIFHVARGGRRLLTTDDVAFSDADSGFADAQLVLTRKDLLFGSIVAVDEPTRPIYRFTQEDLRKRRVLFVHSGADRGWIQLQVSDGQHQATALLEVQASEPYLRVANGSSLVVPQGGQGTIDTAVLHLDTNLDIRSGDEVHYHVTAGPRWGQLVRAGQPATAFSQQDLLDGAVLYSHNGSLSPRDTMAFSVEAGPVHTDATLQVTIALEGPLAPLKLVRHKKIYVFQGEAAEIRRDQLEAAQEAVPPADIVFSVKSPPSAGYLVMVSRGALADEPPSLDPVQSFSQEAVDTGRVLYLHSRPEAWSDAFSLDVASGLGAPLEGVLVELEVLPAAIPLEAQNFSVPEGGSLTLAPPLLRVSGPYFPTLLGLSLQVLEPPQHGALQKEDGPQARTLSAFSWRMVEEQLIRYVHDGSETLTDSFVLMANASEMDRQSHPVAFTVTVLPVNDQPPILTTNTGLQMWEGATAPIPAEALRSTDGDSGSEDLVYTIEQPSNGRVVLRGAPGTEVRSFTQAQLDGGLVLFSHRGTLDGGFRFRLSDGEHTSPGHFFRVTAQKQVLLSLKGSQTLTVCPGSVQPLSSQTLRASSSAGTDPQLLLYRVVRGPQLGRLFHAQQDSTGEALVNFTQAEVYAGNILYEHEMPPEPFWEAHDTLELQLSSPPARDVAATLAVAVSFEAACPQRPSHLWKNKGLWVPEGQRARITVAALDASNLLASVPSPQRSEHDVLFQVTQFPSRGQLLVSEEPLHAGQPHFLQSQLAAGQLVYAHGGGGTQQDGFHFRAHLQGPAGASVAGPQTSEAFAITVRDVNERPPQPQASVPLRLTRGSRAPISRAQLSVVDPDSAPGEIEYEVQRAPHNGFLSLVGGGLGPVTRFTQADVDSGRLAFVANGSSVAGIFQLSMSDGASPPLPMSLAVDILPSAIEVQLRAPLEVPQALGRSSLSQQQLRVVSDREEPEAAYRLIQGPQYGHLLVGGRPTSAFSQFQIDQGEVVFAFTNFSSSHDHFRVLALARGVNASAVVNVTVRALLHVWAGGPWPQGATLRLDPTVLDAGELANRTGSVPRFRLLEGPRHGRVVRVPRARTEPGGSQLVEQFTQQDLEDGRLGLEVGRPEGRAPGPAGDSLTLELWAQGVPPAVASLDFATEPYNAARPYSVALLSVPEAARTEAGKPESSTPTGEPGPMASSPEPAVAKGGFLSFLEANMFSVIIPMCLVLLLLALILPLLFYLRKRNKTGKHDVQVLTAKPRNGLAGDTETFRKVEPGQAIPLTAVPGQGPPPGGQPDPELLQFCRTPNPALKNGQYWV

Substance “HMW-MAA-specific mouse mAb VF1-TP34 (antibody)” came in with an IC50 (read off the curve) of 0.03 µg.
